Data on nine molecules can be found in patent US20120253017A1 (published 2012).

The target of experiment [1] is T1, human c-kit on HEL-92.1.7 and KU812 cells (human, UniProt P10721 26-976).
T1 construct: whole, on cells
Briefly: flow cytometry, HEL-92.1.7 cells. A general note: A flow cytometer gives signals particle by particle.

In experiment [2] the target is T2, cyno c-kit (recombinant, on BIAcore chip) (cynomolgus monkey).
T2 chain: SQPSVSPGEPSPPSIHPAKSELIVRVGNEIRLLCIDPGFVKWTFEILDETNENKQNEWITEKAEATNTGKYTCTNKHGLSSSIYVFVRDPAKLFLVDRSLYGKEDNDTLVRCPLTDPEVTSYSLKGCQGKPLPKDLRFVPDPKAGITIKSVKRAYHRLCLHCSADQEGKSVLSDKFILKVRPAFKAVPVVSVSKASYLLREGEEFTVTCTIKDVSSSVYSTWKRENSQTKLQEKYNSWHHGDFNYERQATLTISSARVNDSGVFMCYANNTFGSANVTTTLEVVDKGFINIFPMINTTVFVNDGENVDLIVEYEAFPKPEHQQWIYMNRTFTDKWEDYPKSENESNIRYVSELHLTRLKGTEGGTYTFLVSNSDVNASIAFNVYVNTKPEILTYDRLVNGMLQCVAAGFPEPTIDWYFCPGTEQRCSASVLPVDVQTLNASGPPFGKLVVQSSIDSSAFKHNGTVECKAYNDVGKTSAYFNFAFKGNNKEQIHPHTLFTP
Briefly: BIAcore, c-kit on SA chip. A general note: SPR reads the build-up and loss of mass on a sensor chip optically.

Experiment [3] has as its target T3, human c-kit (recombinant, on BIAcore chip or beads) (human, UniProt P10721 26-524).
T3 construct: extracellular domain; also called hcKIT; biotinylated human c-kit
As to the kind of experiment: BIAcore, c-kit on SA chip. As for the experimental part:
All unique dAb clones were expressed in 50 ml cultures (OnEX plus carbenicillin) overnight at 37° C. and purified on protein A (VH dAbs) or protein L (VK dAbs). Purified dAbs were passed over a SA BIAcore chip coated with either human or mouse c-kit at 1 μM to identify those dAbs that bound specifically to either human or murine c-kit.

Experiment [4] concerns the target T3, human c-kit (recombinant, on BIAcore …). As to the kind of experiment: BIAcore, dAb at 1000 and 500 nM. As for the experimental part:
Unique dAbs were expressed as bacterial supernatants in 2.5 L shake flasks in Onex media at 37° C. for 24 hrs at 250 rpm. dAbs were purified from the culture media by absorption to protein A or L agarose followed by elution with 10 mM glycine pH2.0.

Experiment [5] deals with T4, mouse ventricular myosin light chain 1, GlySer(His)6 tag (mouse, UniProt P09542 1-204).
T4 construct: also called mouse vMLC-1
T4 sequence (P09542 other isoform, or with tags, fused parts or gaps): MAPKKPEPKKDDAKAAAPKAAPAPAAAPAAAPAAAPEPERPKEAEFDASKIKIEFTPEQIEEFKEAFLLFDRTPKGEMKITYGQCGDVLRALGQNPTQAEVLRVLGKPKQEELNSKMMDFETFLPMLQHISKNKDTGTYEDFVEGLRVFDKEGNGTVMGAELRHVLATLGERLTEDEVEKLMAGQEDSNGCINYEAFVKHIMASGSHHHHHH
As to the kind of experiment: BIAcore, vMLC-1 immobilised.

Experiment [6] addresses T5, human ventricular myosin light chain 1, GlySer(His)6 tag (human, UniProt P08590 1-195, limits assumed).
T5 construct: also called human vMLC-1; vMLC1-6xHIS
Briefly: BIAcore, vMLC-1 immobilised.

T3 sequence (P10721 26-524): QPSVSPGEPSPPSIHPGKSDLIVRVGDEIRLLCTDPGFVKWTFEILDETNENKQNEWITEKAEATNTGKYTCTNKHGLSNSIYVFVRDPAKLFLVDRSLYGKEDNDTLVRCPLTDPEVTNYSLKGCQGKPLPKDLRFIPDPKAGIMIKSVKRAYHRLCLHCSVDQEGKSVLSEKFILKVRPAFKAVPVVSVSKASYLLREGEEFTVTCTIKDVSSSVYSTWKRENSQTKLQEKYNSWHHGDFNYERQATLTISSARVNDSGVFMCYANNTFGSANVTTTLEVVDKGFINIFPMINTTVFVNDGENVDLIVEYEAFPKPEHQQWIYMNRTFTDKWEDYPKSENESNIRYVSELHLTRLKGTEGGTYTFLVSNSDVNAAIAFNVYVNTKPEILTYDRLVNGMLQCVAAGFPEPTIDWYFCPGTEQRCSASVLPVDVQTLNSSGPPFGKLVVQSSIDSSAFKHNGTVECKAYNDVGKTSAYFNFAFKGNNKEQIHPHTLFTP
T1 sequence (P10721 26-976): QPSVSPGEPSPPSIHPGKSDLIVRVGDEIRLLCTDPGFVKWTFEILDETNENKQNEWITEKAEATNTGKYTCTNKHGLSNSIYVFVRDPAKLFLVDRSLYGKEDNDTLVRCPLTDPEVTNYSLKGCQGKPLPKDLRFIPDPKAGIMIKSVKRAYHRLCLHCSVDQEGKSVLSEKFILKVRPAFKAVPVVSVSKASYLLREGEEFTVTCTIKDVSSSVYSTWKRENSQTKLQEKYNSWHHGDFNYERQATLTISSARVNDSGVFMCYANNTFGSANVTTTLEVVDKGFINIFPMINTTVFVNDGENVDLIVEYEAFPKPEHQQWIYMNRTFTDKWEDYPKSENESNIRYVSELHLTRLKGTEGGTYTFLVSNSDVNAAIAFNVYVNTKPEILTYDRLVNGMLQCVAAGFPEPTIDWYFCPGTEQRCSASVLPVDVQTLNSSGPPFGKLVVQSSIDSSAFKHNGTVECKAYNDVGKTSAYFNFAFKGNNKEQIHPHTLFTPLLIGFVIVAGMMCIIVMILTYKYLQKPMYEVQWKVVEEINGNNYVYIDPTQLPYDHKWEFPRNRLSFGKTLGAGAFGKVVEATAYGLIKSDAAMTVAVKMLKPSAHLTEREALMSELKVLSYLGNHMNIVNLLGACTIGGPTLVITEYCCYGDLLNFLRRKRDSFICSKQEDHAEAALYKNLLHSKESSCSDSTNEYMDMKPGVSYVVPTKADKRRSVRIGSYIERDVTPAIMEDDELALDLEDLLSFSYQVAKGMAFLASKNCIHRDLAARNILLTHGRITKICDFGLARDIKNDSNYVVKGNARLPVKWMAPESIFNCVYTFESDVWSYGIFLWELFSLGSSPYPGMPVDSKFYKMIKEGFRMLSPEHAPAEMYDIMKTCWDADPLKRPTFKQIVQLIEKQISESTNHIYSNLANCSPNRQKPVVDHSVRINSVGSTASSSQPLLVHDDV
T5 sequence (P08590 other isoform, or with tags, fused parts or gaps limits assumed): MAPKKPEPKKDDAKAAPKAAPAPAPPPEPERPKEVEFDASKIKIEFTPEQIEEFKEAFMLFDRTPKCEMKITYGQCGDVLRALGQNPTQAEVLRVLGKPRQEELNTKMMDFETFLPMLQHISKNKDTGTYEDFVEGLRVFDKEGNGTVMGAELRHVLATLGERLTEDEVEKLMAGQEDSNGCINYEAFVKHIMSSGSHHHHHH

B1: DOM28m-53 (other)
VH: EVQLLESGGGLVQPGGSLRLSCAASGFTFSDYMMMWVRQAPGKGLEWVSTIDHAGAVTYYADSVKGRFTISRDNSKNTLYLQMNSLRAEDTAVYYCAKNQPVWQANQSRRFDYWGQGTLVTVSS
notes: dAb, C-terminal FLAG tag (pDOM10)
As to B1, the binding result in experiment [1] is on record as “binds”.

B2: DOM28h-33 (other)
chain: EVQLLESGGGLVQPGGSLRLSCAVSGFTFWNYRMGWVRQAPGKGLEWVSSITPQGTHTYYADSVKGRFTISRDNSKNTLYLQMNSLRAEDTAVYYCAKILSMSENHFDYWGQGTLVTVSS
notes: dAb, C-terminal FLAG tag (pDOM10); also called DOM28h-033
For the molecule B2, the values for the dissociation constant (Kd) in experiment [2], in experiment [3] and in experiment [4] were 98.5 nM, 48 nM and 48 nM, respectively.

B3: DOM28m-47 (other)
VH: EVQLLESGGGLVQPGGSLRLSCAASGFTFEAYGMMWVRQAPGKGLEWVSSISHSGLITYYADSVKGRFTISRDNSKNTLYLQMNSLRAEDTAVYYCAENGPLRQNSYFDYWGQGTLVTVSS
notes: as for B1
On to B3, for which, in experiment [1], the binding result is “binds”.

B4: DOM28h-94 (other)
VH: EVQLLESGGGLVQPGGSLRLSCAASGFTFFPYAMGWVRQAPGKGLEWVSFISGRGDTTYYADSVKGRFTISRDNSKNTLYLQMNSLRAEDTAVYYCAKTATSDLWNFDYWGQGTLVTVSS
notes: VH dAb, C-terminal FLAG tag (pDOM10); also called DOM28h-094
Regarding B4, the dissociation constant Kd was 19200 nM in experiment [2], 21800 nM in experiment [3] and 21800 nM in experiment [4].

B5: recombinant anti-MLC mAb (39-15) (antibody, mouse IgG1, V domains shown)
VH: QVQLQQSGAELASPGASVKLSCKASGYTFTTYWIHWVKQRPGQGLEWIGAIYPGDGDTRYTQNFKDKATLTADSSSSTAYMQLSSLASEDSAVFYCAREGTPPFTTATFAMAYWGQGTSVTVSS
VL: DIVMSQSPSSLAVSAGDKVTMSCKSSQSLLYSRTRKNYLAWYQQKPGQSPKLLIYWASTRQSGVPDRFTGSGSGTDFTLTISSVQAEDLAVYYCKQSYNLFTFGSGTKLEIKR
notes: mouse IgG1 heavy and mouse kappa constant regions, expressed in HEK293E
In the case of B5, in experiment [5], the Kd turned out to be 0.0222 nM, the off-rate (koff) was determined as 3.46e-05 s⁻¹ and the association rate constant (kon) stood at 1.56e+06 M⁻¹ s⁻¹. In experiment [6], this molecule showed a Kd of 0.0047 nM, a koff of 1.78e-05 s⁻¹ and an association rate constant (kon) of 3.81e+06 M⁻¹ s⁻¹.

B6: DOM28m-52 (other)
chain: EVQLLESGGGLVQPGGSLRLSCAASGFTFSSYNMSWVRQAPGKGLEWVSWISSSGLMTYYADSVKGRFTISRDNSKNTLYLQMNSLRAEDTAVYYCAKTSLGSHPSRRPFDYWGQGTLVTVSS
notes: as for B1
Consider B6, for which the binding result in experiment [1] is on record as “binds”.

B7: DOM28h-84 (other)
chain: EVQLLESGGGLVQPGGSLRLSCAASGFTFSSYGMSWVRQAPGKGLEWVSWISGTGSGTYYADSVKGRFTISRDNSKNTLYLQMNSLRAEDTAVYYCAKGVPGNNRALFDYWGQGTLVTVSS
notes: dAb, C-terminal FLAG tag (pDOM10); also called DOM28h-084
For B7, the dissociation constant Kd was determined as 10200 nM in experiment [2], 896 nM in experiment [3] and 896 nM in experiment [4].

B8: DOM28h-5 (other)
chain: DIQMTQSPSSLSASVGDRVTITCRASQWIGTALTWYQQKPGKAPKLLIYRGSYLQSGVPSRFSGSGSGTDFTLTISSLQPEDFATYYCQQRYFHPYTFGQGTRVEIKR
notes: dAb, C-terminal FLAG tag (pDOM10); also called DOM28h-005
As to B8, the Kd in experiment [2] came out at 550 nM; in experiment [3] it was 533 nM; in experiment [4], 533 nM.

B9: DOM28h-43 (other)
chain: DIQMTQSPSSLSASVGDRVTITCRASSPIGESLKWYQQKPGKAPKLLIWGGSWLQSGVPSRFSGSGSGTDFTLTISSLQPEDFATYYCGPGRGWPLTFGQGTKVEIKR
notes: dAb, C-terminal FLAG tag (pDOM10); also called DOM28h-043
Consider B9, for which the Kd in experiment [2] amounted to 345 nM; in experiment [3], 239 nM.

The term Kd denotes the equilibrium constant for the complex coming apart. The term koff denotes the rate constant with which the complex falls apart. A high value points to fast dissociation. For orientation: kon means the second-order rate constant of association.
